Assay results reported in IntAct's records for PubMed 20562859.

B1: Gamma-aminobutyric acid receptor-associated protein (Homo sapiens), O95166 (parent)
chain: MKFVYKEEHPFEKRRSEGEKIRKKYPDRVPVIVEKAPKARIGDLDKKKYLVPSDLTVGQFYFLIRKRIHLRAEDALFFFVNNVIPPTSATMGQLYQEHHEEDFFLYIAYSDESVYGL
partner: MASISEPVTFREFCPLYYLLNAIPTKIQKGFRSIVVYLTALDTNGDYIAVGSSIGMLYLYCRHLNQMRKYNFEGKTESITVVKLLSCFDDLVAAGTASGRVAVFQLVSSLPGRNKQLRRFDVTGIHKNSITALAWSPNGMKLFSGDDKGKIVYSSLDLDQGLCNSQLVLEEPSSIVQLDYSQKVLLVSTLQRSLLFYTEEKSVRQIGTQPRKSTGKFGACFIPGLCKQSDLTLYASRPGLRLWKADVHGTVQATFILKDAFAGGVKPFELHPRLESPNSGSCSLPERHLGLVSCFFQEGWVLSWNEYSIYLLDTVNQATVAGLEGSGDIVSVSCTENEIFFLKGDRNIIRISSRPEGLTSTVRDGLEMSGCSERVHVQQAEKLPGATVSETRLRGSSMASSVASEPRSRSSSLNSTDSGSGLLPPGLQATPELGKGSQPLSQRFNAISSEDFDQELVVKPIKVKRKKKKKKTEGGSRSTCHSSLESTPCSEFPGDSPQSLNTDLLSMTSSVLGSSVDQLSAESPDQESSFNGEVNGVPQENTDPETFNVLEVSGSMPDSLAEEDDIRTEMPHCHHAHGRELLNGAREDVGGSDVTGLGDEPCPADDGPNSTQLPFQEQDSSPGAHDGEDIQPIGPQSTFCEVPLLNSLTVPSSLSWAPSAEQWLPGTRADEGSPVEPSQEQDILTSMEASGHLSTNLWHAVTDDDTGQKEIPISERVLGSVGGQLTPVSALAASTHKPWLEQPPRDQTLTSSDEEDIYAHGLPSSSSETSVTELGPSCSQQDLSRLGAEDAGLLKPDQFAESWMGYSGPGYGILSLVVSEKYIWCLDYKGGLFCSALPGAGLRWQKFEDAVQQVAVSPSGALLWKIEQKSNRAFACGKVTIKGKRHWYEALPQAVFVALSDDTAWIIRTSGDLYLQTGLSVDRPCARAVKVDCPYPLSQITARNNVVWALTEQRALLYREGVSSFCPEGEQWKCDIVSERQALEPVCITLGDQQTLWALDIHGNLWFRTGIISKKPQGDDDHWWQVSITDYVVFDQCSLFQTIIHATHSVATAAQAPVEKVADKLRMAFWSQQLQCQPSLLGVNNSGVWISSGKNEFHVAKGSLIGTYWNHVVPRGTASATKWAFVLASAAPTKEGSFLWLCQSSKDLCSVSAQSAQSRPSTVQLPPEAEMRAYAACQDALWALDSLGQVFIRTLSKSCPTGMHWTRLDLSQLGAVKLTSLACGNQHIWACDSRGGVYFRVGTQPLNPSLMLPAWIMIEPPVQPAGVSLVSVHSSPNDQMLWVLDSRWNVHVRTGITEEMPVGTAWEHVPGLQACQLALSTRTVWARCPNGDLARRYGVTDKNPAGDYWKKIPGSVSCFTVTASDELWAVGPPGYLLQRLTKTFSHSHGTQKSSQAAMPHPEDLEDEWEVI
B2: Gamma-aminobutyric acid receptor-associated protein (Homo sapiens), O95166 (parent)
chain: B1 chain
partner: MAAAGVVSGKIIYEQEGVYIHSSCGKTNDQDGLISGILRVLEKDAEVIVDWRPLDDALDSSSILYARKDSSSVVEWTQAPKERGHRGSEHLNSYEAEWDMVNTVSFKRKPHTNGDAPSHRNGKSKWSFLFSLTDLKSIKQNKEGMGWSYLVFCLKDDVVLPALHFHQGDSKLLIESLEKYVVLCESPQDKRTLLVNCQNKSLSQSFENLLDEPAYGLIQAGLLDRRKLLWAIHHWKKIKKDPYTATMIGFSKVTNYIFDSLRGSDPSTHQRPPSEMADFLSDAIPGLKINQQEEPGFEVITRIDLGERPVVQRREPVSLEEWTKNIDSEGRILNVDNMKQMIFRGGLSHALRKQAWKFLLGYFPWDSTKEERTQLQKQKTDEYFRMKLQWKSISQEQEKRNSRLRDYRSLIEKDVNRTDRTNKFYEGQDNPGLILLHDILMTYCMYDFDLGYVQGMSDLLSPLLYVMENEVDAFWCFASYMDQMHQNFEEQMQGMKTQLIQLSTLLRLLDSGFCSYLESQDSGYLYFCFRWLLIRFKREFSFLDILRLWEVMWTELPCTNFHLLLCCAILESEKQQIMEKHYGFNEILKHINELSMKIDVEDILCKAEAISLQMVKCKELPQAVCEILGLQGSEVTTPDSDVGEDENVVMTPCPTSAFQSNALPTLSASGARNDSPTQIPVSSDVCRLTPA
B3: Gamma-aminobutyric acid receptor-associated protein (Homo sapiens), O95166 (parent)
chain: B1 chain
partner: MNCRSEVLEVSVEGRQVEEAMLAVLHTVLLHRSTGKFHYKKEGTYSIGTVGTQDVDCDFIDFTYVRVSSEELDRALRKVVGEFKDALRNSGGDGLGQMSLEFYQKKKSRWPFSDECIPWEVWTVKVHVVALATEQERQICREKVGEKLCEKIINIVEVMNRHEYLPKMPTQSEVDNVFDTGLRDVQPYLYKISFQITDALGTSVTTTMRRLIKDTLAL
B4: Gamma-aminobutyric acid receptor-associated protein (Homo sapiens), O95166 (parent)
chain: B1 chain
partner: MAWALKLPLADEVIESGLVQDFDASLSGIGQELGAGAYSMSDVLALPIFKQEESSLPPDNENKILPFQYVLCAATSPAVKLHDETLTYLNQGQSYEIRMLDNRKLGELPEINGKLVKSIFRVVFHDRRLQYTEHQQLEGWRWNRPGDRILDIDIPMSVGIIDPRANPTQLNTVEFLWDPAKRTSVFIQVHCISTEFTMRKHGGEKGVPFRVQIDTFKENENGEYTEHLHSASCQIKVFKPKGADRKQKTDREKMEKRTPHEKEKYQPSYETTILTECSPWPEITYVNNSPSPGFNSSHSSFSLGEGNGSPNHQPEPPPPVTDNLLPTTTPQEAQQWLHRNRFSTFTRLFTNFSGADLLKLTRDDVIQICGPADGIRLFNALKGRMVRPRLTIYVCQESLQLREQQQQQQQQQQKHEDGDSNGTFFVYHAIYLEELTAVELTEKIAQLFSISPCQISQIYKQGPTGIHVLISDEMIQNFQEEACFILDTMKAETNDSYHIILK
B5: Gamma-aminobutyric acid receptor-associated protein (Homo sapiens), O95166 (parent)
chain: B1 chain
partner: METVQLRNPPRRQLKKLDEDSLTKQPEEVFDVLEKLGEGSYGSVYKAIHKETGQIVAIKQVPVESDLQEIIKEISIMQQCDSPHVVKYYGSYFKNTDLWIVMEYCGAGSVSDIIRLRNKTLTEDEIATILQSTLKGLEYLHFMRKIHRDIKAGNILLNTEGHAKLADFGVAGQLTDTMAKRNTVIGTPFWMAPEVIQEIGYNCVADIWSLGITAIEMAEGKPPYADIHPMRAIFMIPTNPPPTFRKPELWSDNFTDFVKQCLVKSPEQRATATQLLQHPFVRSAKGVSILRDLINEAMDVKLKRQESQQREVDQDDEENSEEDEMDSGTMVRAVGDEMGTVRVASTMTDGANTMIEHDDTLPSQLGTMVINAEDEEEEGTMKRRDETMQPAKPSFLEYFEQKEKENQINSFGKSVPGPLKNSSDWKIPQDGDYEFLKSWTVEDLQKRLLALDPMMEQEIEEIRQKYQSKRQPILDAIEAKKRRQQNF

Variants of: B1
Details: with tcpr2_human TECPR2, O15040

Row | effect of a mutation on the interaction | Variant
1 | decreasing interaction | Y49A;L50A

Variants of: B2
Details: with tbc15_human TBC1D15, Q8TC07

Row | effect of a mutation on the interaction | Variant
2 | disrupting interaction | Y49A;L50A

Variants of: B3
Details: with atga1_human ATG101, Q9BSB4

Row | effect of a mutation on the interaction | Variant
3 | increasing interaction | Y49A;L50A
4 | increasing interaction | R71A

Variants of: B4
Details: with tfcp2_human TFCP2, Q12800

Row | effect of a mutation on the interaction | Variant
5 | decreasing interaction | Y49A;L50A
6 | increasing interaction | R71A

Variants of: B5
Details: with stk4_human STK4, Q13043

Row | effect of a mutation on the interaction | Variant
7 | increasing interaction | R71A
